Values joined by “and” are separate entries in the source; they are usually repeats but may differ in a detail not shown here. Identical values can stand only once.
B1: 17G8_hIgG1 (antibody, V domains shown)
VH: EVKLVESGGGLVQPGGSLSLSCAASGFTFTDYYMSWVRQPPGKALEWLGFIRNKANGYTTEYSASVKGRFTISRDNSQSILYLQMNALRAEDSATYYCARYKLGGYFDVWGTGTTVTVSS
VL: DIQMTQTTSSLSASLGDRVTISCRASQDISNYLNWYQQKPDGTVKLLIYYTSRLHSGVPSRFSGSGSGTDYSLTISNLEQEDIATYFCQQGNTLPWTFGGGTKLEIK
B2: 24E3_hIgG1 (antibody, V domains shown)
VH: QAYLQQSGAELVRPGASVKMSCKASGYTFTSYNMHWVKQTPRQGLEWIGAIYPGNGDTSYNPKFKGKATLTVDKSSSTAYMQLSSLTSEDSAVYFCTRWDWGGYFDVWGTGTTVTVSS
VL: DIQMTQTTSSLSASLGDRVTISCRASQDISNYLNWYQQKPDGTVKLLIYYTSRLHSGVPSRFSGSGSGTDYSLTISNLEQEDIATYFCQQGDTLPWTFGGGTKLGIK
B3: 28G11_H2L3 (antibody, human IgG1, kappa)
heavy: not shown
light: DIQMTQSPSSLSASVGDRLTISCRASQDISNYLNWYQQKPGKTVKLLIYYTSRLHSGVPSRFSGSGSGTDYTLTISSLQPEDVATYFCQQGDTLPWTFGQGTKLEIKRTVAAPSVFIFPPSDEQLKSGTASVVCLLNNFYPREAKVQWKVDNALQSGNSQESVTEQDSKDSTYSLSSTLTLSKADYEKHKVYACEVTHQGLSSPVTKSFNRGEC
B4: 28G11_H2L2 (antibody, human IgG1, kappa)
heavy: not shown
light: DIQMTQSPSSLSASVGDRVTITCRASQDISNYLNWYQQKPGKTVKLLIYYTSRLHSGVPSRFSGSGSGTDYTLTISSLQPEDVATYFCQQGDTLPWTFGQGTKLEIKRTVAAPSVFIFPPSDEQLKSGTASVVCLLNNFYPREAKVQWKVDNALQSGNSQESVTEQDSKDSTYSLSSTLTLSKADYEKHKVYACEVTHQGLSSPVTKSFNRGEC
B5: 28G11_H2L1 (antibody, human IgG1, kappa, V domains shown)
VH: EVQLVESGGGLVQPGGSLRLSCAASGFTFTDYYMSWVRQAPGKGLEWLGFIRNKPNGYTTEYSASVKGRFTISRDNSQSSLYLQMNSLKTEDTAVYYCARYTGGGYFDYWGQGTLLTVSS
VL: DIQMTQSPSSLSASVGDRVTITCRASQDISNYLNWYQQKPGKVPKLLIYYTSRLHSGVPSRFSGSGSGTDYTLTISSLQPEDVATYFCQQGDTLPWTFGQGTKLEIKR

Experiments:
[1] = biological target: T1, human LAP-TGFβ2 overexpressed on HT1080 cells (human, UniProt P61812 21-414); assay: flow cytometry titration, HT1080-huB2 cells
T1 construct: also called HT1080-huB2
T1 sequence: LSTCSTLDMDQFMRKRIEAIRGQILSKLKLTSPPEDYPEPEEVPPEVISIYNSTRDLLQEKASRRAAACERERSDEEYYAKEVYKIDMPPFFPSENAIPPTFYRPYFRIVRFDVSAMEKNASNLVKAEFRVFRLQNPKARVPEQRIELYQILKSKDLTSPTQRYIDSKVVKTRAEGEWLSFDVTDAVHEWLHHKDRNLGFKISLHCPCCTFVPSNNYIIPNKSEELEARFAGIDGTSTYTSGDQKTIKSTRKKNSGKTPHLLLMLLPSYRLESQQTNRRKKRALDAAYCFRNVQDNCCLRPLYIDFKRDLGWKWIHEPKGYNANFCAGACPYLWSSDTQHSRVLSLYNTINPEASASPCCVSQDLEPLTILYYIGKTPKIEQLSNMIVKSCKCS
Method: (§1) This Example describes the binding of anti-LAP antibodies to LAP-TGFβ isoforms and LAP-TGFβ variants. In addition to antibodies 28G11_hIgG1, 22F9_hIgG1, and 20E6_hIgG1, anti-LAP antibodies 17G8_hIgG1, 24E3_hIgG1, and 2C9_(hyb) were also tested in this experiment. Briefly, 4×10⁵ each of (a) HT1080 cells, (b) HT1080 cells overexpressing human LAP-TGFβ1, (c) HT1080 cells overexpressing human LAP-TGFβ2, (d) HT1080 cells overexpressing human LAP-TGFβ3, (e) HT1080 cells overexpressing murine LAP-TGFβ1, (f) P3U1 cells, (g) P3U1 cells overexpressing LAP-TGFβ1 and GARP, and (h) P3U1 cells overexpressing LAP-TGFβ1 and LRRC33 were cultured in 96-well plates. The plates were centrifuged for 5 min at 1,500 rpm, liquid was removed, and cells were resuspended with 200 μL FACS buffer. The plates were centrifuged again, diluted primary antibody was added to each well, and the plates were incubated on ice for 20 minutes, followed by centrifugation. The cells were resuspended in 200 μL FACS buffer, centrifuged again, and resuspended in 50 μL diluted secondary antibody (Alexa647-anti-Human IgG or APC-anti-Mouse IgG). The plates were incubated on ice for 20 minutes in the dark, washed twice with 200 μL FACS buffer, and cells from each well (in 200 μL FACS buffer) were read on the Attune NXT instrument.

[2] = biological target: T2, human LAP-TGFβ3 overexpressed on HT1080 cells (human, UniProt P10600 24-412); assay: flow cytometry titration, HT1080-huB3 cells
T2 construct: also called HT1080-huB3
T2 sequence: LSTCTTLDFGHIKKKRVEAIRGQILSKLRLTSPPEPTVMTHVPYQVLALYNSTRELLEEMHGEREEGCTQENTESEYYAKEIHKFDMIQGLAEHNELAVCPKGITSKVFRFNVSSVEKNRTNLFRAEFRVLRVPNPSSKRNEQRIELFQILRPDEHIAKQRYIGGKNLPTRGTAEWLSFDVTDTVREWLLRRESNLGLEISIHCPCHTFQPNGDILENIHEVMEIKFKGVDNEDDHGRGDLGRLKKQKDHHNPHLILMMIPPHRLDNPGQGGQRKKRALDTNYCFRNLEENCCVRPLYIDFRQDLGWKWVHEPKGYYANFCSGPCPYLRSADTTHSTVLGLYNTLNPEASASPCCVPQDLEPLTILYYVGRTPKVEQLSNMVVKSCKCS
Method: as §1

[3] = biological target: murine LAP-TGFβ1 overexpressed on cells (mouse, UniProt P04202 30-390); assay: cell-based or functional assay
[4] = biological target: T3, human LAP-TGFβ1 overexpressed on cells (human, UniProt P01137 30-390); assay: cell-based or functional assay
[5] = biological target: T4, human GARP and human LAP-TGFβ1 co-expressed on P3U1 cells (human, UniProt Q14392 20-662); assay: flow cytometry, P3U1 cells
T4 construct: whole, on cells; also called P3U1 cells over-expressing human GARP and LAP-TGFβ1
Method: as §1

[6] = biological target: T5, mature human TGFβ1 (free TGFβ1, without LAP) (human, UniProt P01137 279-390); assay: TGFβ1 ELISA after pre-incubation of 1000 pg mature TGFβ1 with antibody; loss of signal reflects binding
T5 construct: also called mature TGFβ; free human TGFβ1
Method: To determine whether anti-LAP antibodies 28G11_hIgG1, 22F9_hIgG1, 20E6_hIgG1, 17G8_hIgG1, and 24E3_hIgG1, bind to free human TGFβ1 (i.e., mature TGFβ1 that lacks LAP), the ability of the antibodies to inhibit an anti-TGFβ ELISA was evaluated. Briefly, mature TGFβ1 (1000 pg) was incubated with the indicated anti-LAP antibodies at 10 μg/mL, an isotype control antibody as a negative control or the commercially available anti-TGFβ antibody 1D11 as a positive control for 10 minutes on ice. For example, the 1D11 antibody is commercially available from any number of sellers, for example Bio x Cell Inc. (West Lebanon, N.H.). Supernatants were assayed in a TGFβ1 ELISA (R&D Systems) according to the manufacturer instructions to measure free TGFβ1. […] Note that Figure and FIG. are used interchangeably in this application.

[7] = biological target: T6, LAP-only variant of human TGFβ1 (empty LAP) on HT1080 cells (human, UniProt P01137 30-277); assay: flow cytometry, HT1080 cells; grey bar = no anti-LAP antibody
T6 construct: LAP without the mature cytokine; also called HT1080-emptyLAP; LAP-only construct
Method: as §1
(§2) Cells were processed for flow cytometry in the same manner described above for the isoform-specific binding experiments.

[8] = biological target: T7, human-chicken LAP-TGFβ1 chimera #2.2 on HT1080 cells (human/chicken chimera, UniProt P01137 30-390); assay: as above
T7 construct: also called HT1080-ch2.2
Method: as §1, §2

[9] = biological target: T8, human LAP-TGFβ1 with K27C and Y75C mutations on HT1080 cells (human, UniProt P01137 30-390); assay: as above
T8 construct: also called closed conformation
Method: as §1, §2

[10] = biological target: T9, human-chicken LAP-TGFβ1 chimera #2.3 on HT1080 cells (human/chicken chimera, UniProt P01137 30-390); assay: as above
T9 construct: also called HT1080-ch2.3
Method: as §1, §2

[11] = biological target: T10, human LAP-TGFβ1 with a Y74T mutation on HT1080 cells (human, UniProt P01137 30-390); assay: as above
T10 construct: also called HT1080-Y74T; open conformation
Method: as §1, §2

[12] = biological target: T3, human LAP-TGFβ1 overexpressed on cells; assay: flow cytometry; black bar HT1080-huB1, grey bar HT1080
[13] = biological target: T4, human GARP and human LAP-TGFβ1 …; assay: flow cytometry competition on P3U1 cells with human GARP and LAP-TGFβ1; competitor of biotin-28G11 (5 µg competitor, 0.31 µg biotin-28G11)
Method: In the first experiment, the various humanized 28G11 candidates were tested for retention of binding to human LAP-TGFβ1 by competition with biotin-28G11 in a flow cytometry assay.
P3U1 cells over-expressing human GARP and LAP-TGFβ1 were placed in a round-bottom 96-well plate at density of 40,000 cells/well. The cells were washed with FACS buffer (25 mM HEPES, 2 mM EDTA, 2% fetal bovine serum in Hank's Balanced Salt Solution). 50 μL of 1:200 diluted TruStain Mouse FcX (BioLegend) was added to each well, followed by 50 μL of 100 ng/μL of humanized 28G11 construct (H0L0, H0L1, H0L2, H0L3, HILO, H1L1, H1L2, H1L3, H2L0, H2L1, H2L2, H2L3). The antibody was allowed to bind for 10 minutes. 50 μL of 6.2 ng/μL of biotinylated murine hybridoma 28G11_(hyb) was added to each well. The biotinylated antibody was allowed to bind for 10 minutes, and then the cells were washed twice with FACS buffer. The cells were labeled for 15 minutes with allophytocyanin-streptavidin (BioLegend), washed twice with FACS buffer, and analyzed by flow cytometry.

T3 sequence (P01137 30-390): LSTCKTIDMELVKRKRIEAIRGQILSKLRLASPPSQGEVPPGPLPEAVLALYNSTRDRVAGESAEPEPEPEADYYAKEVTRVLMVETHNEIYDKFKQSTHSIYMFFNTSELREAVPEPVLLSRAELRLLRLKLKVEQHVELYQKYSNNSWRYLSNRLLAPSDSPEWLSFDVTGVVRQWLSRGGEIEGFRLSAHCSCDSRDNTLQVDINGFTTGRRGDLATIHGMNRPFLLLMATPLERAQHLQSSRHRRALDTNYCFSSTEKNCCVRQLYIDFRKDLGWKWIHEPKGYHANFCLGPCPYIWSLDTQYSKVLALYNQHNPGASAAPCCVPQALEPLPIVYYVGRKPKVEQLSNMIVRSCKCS
T4 sequence (chain, as listed by the source, chain 1 of 2): as the sequence (P01137 30-390) above
T4 sequence (Q14392 20-662, chain 2 of 2): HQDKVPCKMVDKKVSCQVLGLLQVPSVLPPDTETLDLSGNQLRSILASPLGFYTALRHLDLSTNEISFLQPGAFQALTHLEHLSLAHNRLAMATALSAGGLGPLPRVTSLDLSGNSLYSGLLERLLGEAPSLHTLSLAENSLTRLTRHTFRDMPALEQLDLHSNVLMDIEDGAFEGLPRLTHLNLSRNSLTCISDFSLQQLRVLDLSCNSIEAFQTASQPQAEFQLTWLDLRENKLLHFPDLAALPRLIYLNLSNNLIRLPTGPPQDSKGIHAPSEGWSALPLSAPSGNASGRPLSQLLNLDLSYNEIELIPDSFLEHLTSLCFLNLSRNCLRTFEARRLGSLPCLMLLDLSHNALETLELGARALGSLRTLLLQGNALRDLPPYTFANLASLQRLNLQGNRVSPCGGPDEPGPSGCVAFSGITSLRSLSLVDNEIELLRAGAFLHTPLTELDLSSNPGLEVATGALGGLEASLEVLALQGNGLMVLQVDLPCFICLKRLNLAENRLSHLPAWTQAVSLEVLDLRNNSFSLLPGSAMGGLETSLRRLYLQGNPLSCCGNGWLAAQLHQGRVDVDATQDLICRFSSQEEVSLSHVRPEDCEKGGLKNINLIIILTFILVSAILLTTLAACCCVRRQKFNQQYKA
Sequence of murine LAP-TGFβ1 overexpressed on cells (P04202 30-390): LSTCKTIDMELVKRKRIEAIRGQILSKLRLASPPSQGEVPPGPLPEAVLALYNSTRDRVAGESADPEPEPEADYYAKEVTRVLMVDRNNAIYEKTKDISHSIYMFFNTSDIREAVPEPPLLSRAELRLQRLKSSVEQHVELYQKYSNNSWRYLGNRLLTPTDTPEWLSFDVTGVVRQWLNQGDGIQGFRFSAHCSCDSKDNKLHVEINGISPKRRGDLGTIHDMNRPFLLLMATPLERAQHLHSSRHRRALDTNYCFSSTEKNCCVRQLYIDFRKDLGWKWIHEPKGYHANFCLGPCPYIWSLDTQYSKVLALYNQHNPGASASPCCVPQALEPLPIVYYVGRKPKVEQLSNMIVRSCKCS
T10 sequence (P01137 other isoform, or with tags, fused parts or gaps Y74T Y74T): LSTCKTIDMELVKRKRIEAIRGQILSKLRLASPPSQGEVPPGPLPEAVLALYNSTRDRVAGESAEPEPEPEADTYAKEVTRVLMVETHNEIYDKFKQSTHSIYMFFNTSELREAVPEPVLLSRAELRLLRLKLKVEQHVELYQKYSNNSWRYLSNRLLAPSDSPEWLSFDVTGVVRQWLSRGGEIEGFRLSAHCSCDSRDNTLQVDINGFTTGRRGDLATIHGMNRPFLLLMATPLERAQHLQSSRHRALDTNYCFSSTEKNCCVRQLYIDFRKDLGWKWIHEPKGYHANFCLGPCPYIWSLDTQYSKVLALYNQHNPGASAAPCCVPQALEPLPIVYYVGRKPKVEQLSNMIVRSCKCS
T8 sequence (P01137 other isoform, or with tags, fused parts or gaps K27C Y75C K27C Y75C): as the sequence (P01137 other isoform, or with tags, fused parts or gaps Y74T Y74T) above, with K27C, T74Y, Y75C counted along it
T9 sequence (P01137 other isoform, or with tags, fused parts or gaps mutant): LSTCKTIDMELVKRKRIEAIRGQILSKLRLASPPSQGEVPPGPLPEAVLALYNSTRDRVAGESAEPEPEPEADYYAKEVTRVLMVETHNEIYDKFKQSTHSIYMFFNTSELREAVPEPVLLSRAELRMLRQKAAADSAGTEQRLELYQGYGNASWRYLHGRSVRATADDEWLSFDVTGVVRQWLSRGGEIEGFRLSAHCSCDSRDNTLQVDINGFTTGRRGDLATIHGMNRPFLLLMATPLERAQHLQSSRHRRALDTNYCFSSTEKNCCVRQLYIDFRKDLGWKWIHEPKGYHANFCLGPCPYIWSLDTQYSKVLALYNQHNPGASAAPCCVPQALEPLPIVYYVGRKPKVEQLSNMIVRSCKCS
T6 sequence (P01137 30-277, change not shown): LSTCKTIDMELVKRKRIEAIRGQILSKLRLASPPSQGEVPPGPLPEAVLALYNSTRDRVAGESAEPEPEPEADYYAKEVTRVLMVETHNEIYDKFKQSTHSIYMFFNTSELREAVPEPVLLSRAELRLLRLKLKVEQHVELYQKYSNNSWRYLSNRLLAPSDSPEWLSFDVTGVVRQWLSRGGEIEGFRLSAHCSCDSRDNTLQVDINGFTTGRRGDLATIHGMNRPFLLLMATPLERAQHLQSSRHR
T5 sequence (P01137 279-390 limits assumed): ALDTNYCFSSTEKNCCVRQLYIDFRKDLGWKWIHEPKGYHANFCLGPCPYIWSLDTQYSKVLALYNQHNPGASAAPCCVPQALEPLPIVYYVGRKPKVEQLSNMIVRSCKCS
T7 sequence (P01137 other isoform, or with tags, fused parts or gaps mutant): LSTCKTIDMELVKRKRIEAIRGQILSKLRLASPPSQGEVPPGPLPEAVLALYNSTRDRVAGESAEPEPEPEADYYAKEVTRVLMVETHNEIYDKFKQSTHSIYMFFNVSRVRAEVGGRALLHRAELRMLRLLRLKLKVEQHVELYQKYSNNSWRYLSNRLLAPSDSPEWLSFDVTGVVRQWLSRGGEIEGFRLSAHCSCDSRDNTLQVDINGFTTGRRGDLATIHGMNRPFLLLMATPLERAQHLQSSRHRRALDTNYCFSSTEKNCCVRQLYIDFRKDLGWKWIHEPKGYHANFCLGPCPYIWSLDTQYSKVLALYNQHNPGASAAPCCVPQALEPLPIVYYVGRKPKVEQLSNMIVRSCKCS

Binder | binding result [1] | binding result [2] | IC50 of inhibition of TGFβ1 activation [3] | IC50 of inhibition of TGFβ1 activation [4] | binding result [5] | binding result [6] | binding result [7] | binding result [8] | binding result [9] | binding result [10] | binding result [11] | binding result [12] | binding result [13]
B1 | no binding (tested: about 800 ng/well) | no binding (tested: about 800 ng/well) | 1.4 µg/mL and 0.59 µg/mL | 1 /ml (as printed) and 1.5 ug/ml | binds | no binding (tested: 10 µg/mL) | no binding | no binding | binds | binds | no binding |  | 
B2 | no binding (tested: about 800 ng/well) | no binding (tested: about 800 ng/well) | 1.1 µg/mL and 0.76 µg/mL | 2.5 µg/mL and 2.6 µg/mL | binds | no binding (tested: 10 µg/mL) | no binding | no binding | binds | binds | no binding |  | 
B3 |  |  |  |  |  |  |  |  |  |  |  | binds | binds
B4 |  |  |  |  |  |  |  |  |  |  |  |  | binds
B5 |  |  |  |  |  |  |  |  |  |  |  |  | binds

Reference: patent publication US20220017612A1 (TILOS THERAPEUTICS, published 2022)
